Measured values reported in article PMC3792123, “Role of Cysteines in the Stability and DNA-Binding Activity of the Hypochlorite-Specific Transcription Factor HypT” (PLoS ONE, 2013).

Tests used:
[1] = molecular target: the molecule itself; experiment: AUC; sedimentation velocity, 4 to 10 µM protein, absorbance at 280 nm, 10 mM NaH2PO4, 400 mM NaCl, 5% glycerin, pH 7.5; c(S) method (SedFit)
[2] = molecular target: the molecule itself; experiment: cross-linking; disulfide formed on oxidation: purified, reduced protein treated with HOCl (25 µM), NH2Cl (25 µM) or H2O2 (1 mM), then non-reducing SDS-PAGE; disulfide-linked dimer at ca. 64 kDa, mostly reduced again by 1 mM TCEP

B1: HypT (wild-type, purified) (natural protein, E. coli, UniProt P39376 1-303, looked up)
chain: MDDCGAILHNIETKWLYDFLTLEKCRNFSQAAVSRNVSQPAFSRRIRALEQAIGVELFNRQVTPLQLSEQGKIFHSQIRHLLQQLESNLAELRGGSDYAQRKIKIAAAHSLSLGLLPSIISQMPPLFTWAIEAIDVDEAVDKLREGQSDCIFSFHDEDLLEAPFDHIRLFESQLFPVCASDEHGEALFNLAQPHFPLLNYSRNSYMGRLINRTLTRHSELSFSTFFVSSMSELLKQVALDGCGIAWLPEYAIQQEIRSGKLVVLNRDELVIPIQAYAYRMNTRMNPVAERFWRELRELEIVLS
notes: HypT (YjiE), HOCl-specific LysR-type transcription factor of E. coli; Oxidation (HOCl, NH2Cl, H2O2) gives a Cys4-Cys4 disulfide between two chains; also called YjiE; wild-type HypT; source: E. coli BL21 (DE3) gold, pET11a, purified (HisTrap, PD10 desalting); copies: 12
stoichiometry N [1]: 12

B2: HypT^C150S (natural protein, E. coli, UniProt P39376 1-303, looked up)
chain: MDDCGAILHNIETKWLYDFLTLEKCRNFSQAAVSRNVSQPAFSRRIRALEQAIGVELFNRQVTPLQLSEQGKIFHSQIRHLLQQLESNLAELRGGSDYAQRKIKIAAAHSLSLGLLPSIISQMPPLFTWAIEAIDVDEAVDKLREGQSDSIFSFHDEDLLEAPFDHIRLFESQLFPVCASDEHGEALFNLAQPHFPLLNYSRNSYMGRLINRTLTRHSELSFSTFFVSSMSELLKQVALDGCGIAWLPEYAIQQEIRSGKLVVLNRDELVIPIQAYAYRMNTRMNPVAERFWRELRELEIVLS
notes: HypT (YjiE) of E. coli, single mutant C150S; source: E. coli BL21 (DE3) gold, pET11a, purified (HisTrap, PD10 desalting)
binding result [2]: binds

B3: HypT^C178S (natural protein, E. coli, UniProt P39376 1-303, looked up)
chain: MDDCGAILHNIETKWLYDFLTLEKCRNFSQAAVSRNVSQPAFSRRIRALEQAIGVELFNRQVTPLQLSEQGKIFHSQIRHLLQQLESNLAELRGGSDYAQRKIKIAAAHSLSLGLLPSIISQMPPLFTWAIEAIDVDEAVDKLREGQSDCIFSFHDEDLLEAPFDHIRLFESQLFPVSASDEHGEALFNLAQPHFPLLNYSRNSYMGRLINRTLTRHSELSFSTFFVSSMSELLKQVALDGCGIAWLPEYAIQQEIRSGKLVVLNRDELVIPIQAYAYRMNTRMNPVAERFWRELRELEIVLS
notes: HypT (YjiE) of E. coli, single mutant C178S; source: E. coli BL21 (DE3) gold, pET11a, purified (HisTrap, PD10 desalting)
binding result [2]: binds

B4: HypT^C242S (natural protein, E. coli, UniProt P39376 1-303, looked up)
chain: MDDCGAILHNIETKWLYDFLTLEKCRNFSQAAVSRNVSQPAFSRRIRALEQAIGVELFNRQVTPLQLSEQGKIFHSQIRHLLQQLESNLAELRGGSDYAQRKIKIAAAHSLSLGLLPSIISQMPPLFTWAIEAIDVDEAVDKLREGQSDCIFSFHDEDLLEAPFDHIRLFESQLFPVCASDEHGEALFNLAQPHFPLLNYSRNSYMGRLINRTLTRHSELSFSTFFVSSMSELLKQVALDGSGIAWLPEYAIQQEIRSGKLVVLNRDELVIPIQAYAYRMNTRMNPVAERFWRELRELEIVLS
notes: HypT (YjiE) of E. coli, single mutant C242S; source: E. coli BL21 (DE3) gold, pET11a, purified (HisTrap, PD10 desalting)
binding result [2]: binds

B5: HypT^5C→S (natural protein, E. coli, UniProt P39376 1-303, looked up)
chain: MDDSGAILHNIETKWLYDFLTLEKSRNFSQAAVSRNVSQPAFSRRIRALEQAIGVELFNRQVTPLQLSEQGKIFHSQIRHLLQQLESNLAELRGGSDYAQRKIKIAAAHSLSLGLLPSIISQMPPLFTWAIEAIDVDEAVDKLREGQSDSIFSFHDEDLLEAPFDHIRLFESQLFPVSASDEHGEALFNLAQPHFPLLNYSRNSYMGRLINRTLTRHSELSFSTFFVSSMSELLKQVALDGSGIAWLPEYAIQQEIRSGKLVVLNRDELVIPIQAYAYRMNTRMNPVAERFWRELRELEIVLS
notes: also called cysteine-free HypT mutant; source: E. coli BL21 (DE3) gold, pET28a, purified (HisTrap, PD10 desalting)
stoichiometry N [1]: 4

B6: HypT^quadrupleC150 (natural protein, E. coli, UniProt P39376 1-303, looked up)
chain: MDDSGAILHNIETKWLYDFLTLEKSRNFSQAAVSRNVSQPAFSRRIRALEQAIGVELFNRQVTPLQLSEQGKIFHSQIRHLLQQLESNLAELRGGSDYAQRKIKIAAAHSLSLGLLPSIISQMPPLFTWAIEAIDVDEAVDKLREGQSDCIFSFHDEDLLEAPFDHIRLFESQLFPVSASDEHGEALFNLAQPHFPLLNYSRNSYMGRLINRTLTRHSELSFSTFFVSSMSELLKQVALDGSGIAWLPEYAIQQEIRSGKLVVLNRDELVIPIQAYAYRMNTRMNPVAERFWRELRELEIVLS
notes: HypT (YjiE) of E. coli, quadruple mutant: four cysteines replaced by serine, Cys150 left intact; source: E. coli BL21 (DE3) gold, pET28a, purified (HisTrap, PD10 desalting)
binding result [1]: binds

B7: HypT^C25S (natural protein, E. coli, UniProt P39376 1-303, looked up)
chain: MDDCGAILHNIETKWLYDFLTLEKSRNFSQAAVSRNVSQPAFSRRIRALEQAIGVELFNRQVTPLQLSEQGKIFHSQIRHLLQQLESNLAELRGGSDYAQRKIKIAAAHSLSLGLLPSIISQMPPLFTWAIEAIDVDEAVDKLREGQSDCIFSFHDEDLLEAPFDHIRLFESQLFPVCASDEHGEALFNLAQPHFPLLNYSRNSYMGRLINRTLTRHSELSFSTFFVSSMSELLKQVALDGCGIAWLPEYAIQQEIRSGKLVVLNRDELVIPIQAYAYRMNTRMNPVAERFWRELRELEIVLS
notes: HypT (YjiE) of E. coli, single mutant C25S; source: E. coli BL21 (DE3) gold, pET28a, purified (HisTrap, PD10 desalting)
binding result [2]: binds
